# Test results from publication PMC10624354 (Science Advances, 2023).
# T1: PIF4-NLuc (Arabidopsis, UniProt Q8W2F3 1-430)
# T1 sequence (looked up): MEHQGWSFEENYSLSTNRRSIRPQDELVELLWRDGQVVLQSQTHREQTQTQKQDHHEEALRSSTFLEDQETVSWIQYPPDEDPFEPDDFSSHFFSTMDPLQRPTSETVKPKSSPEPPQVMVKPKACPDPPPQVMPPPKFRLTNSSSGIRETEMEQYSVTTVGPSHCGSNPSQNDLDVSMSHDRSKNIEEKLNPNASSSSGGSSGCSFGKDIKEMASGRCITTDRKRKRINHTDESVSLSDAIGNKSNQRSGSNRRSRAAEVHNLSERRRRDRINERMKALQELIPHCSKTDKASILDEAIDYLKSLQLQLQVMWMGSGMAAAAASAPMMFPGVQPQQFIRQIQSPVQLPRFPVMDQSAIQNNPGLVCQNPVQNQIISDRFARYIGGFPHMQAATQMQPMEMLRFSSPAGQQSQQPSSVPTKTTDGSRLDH
# B1: HIS-tagged PIF4 (natural protein, Arabidopsis, UniProt Q8W2F3 1-430, looked up)
# chain: MEHQGWSFEENYSLSTNRRSIRPQDELVELLWRDGQVVLQSQTHREQTQTQKQDHHEEALRSSTFLEDQETVSWIQYPPDEDPFEPDDFSSHFFSTMDPLQRPTSETVKPKSSPEPPQVMVKPKACPDPPPQVMPPPKFRLTNSSSGIRETEMEQYSVTTVGPSHCGSNPSQNDLDVSMSHDRSKNIEEKLNPNASSSSGGSSGCSFGKDIKEMASGRCITTDRKRKRINHTDESVSLSDAIGNKSNQRSGSNRRSRAAEVHNLSERRRRDRINERMKALQELIPHCSKTDKASILDEAIDYLKSLQLQLQVMWMGSGMAAAAASAPMMFPGVQPQQFIRQIQSPVQLPRFPVMDQSAIQNNPGLVCQNPVQNQIISDRFARYIGGFPHMQAATQMQPMEMLRFSSPAGQQSQQPSSVPTKTTDGSRLDH
# Key:
# PIF4-NLuc = biological target: T1, PIF4-NLuc; assay: split reporter
# MBP-tagged HSFA1d = MBP-tagged HSFA1d (Arabidopsis, UniProt Q9LQM7 1-485); assay: pull-down
# HIS-tagged PIF4 = biological target: B1; assay: pull-down
# Chain of MBP-tagged HSFA1d (Q9LQM7 whole entry): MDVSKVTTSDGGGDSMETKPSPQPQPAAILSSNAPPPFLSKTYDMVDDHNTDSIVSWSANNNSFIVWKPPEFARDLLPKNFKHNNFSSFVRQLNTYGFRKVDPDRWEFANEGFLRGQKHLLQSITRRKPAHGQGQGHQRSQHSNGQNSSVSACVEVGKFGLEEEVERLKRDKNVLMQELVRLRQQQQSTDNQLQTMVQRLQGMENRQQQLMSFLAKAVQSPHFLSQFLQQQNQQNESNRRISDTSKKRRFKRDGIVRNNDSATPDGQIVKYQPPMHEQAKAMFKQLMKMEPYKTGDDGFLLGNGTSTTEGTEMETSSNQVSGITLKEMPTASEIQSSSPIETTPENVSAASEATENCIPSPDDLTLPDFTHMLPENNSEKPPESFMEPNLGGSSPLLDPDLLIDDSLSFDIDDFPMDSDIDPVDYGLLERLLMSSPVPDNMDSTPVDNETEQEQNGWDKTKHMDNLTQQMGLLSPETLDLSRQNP
Binder,binding result (HIS-tagged PIF4),other results
HSFA1d-CLuc (natural protein) not shown,,fold increase of luciferase activity at 28°C against 21°C (PIF4-NLuc): ~60 fold
B1,,binding result (MBP-tagged HSFA1d): binds
"MBP-HSFA1d-S1 (DNA binding domain, amino acids 1 to 144) (domain or fragment) not shown",binds,
"MBP-HSFA1d-S2 (oligomerization domain HR-A/B and NLS, amino acids 145 to 260) (domain or fragment, Arabidopsis, UniProt Q9LQM7 145-260, looked up) GQNSSVSACVEVGKFGLEEEVERLKRDKNVLMQELVRLRQQQQSTDNQLQTMVQRLQGMENRQQQLMSFLAKAVQSPHFLSQFLQQQNQQNESNRRISDTSKKRRFKRDGIVRNND",binds,
